In the supplement of paper PMC9732359:
± gives the uncertainty stated by the source.

test: protein stability index of a GFP-peptide fusion (yeast GPS) (PSI 1-4); higher = more stable; sorted into four equal gates, so the index is relative within each strain; settings: doa10∆
Procedure, shortened: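 Tiled 17-residue peptides from yeast proteins were fused downstream of GFP on a plasmid that also expresses Cherry, and the pooled library was carried in yeast. Mid-log cultures grown in leucine-free medium were sorted into four equal gates by GFP/Cherry fluorescence ratio. Plasmids from each gate were PCR-amplified and Illumina-sequenced, and reads were assigned to strains by barcodes. Each peptide's protein stability index is the sum, over gates, of the gate's read frequency multiplied by its gate number.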

NTFKVLSKFFFFIFVFN [COB] and NTHWGLVCPAETPEGQA [RPB2] are within error of each other in protein stability index: 1.66 ± 0.078 for the first, 1.53 ± 0.14 for the second.

Compared with NTLEEFEHGRTPAEMSR [FAS2], NTLLQQQNYSKVLLPSI [SWI1] is lower in protein stability index: 2.8 ± 0.15 for the first, 2.07 ± 0.077 for the second.

First: NTLNIDNTARVIFDASI [BRN1]
Second: NTNGTNASANSTSFSFN [YOR098C/NUP1]
The protein stability index of the first is lower: 2.14 ± 0.05 for the first, 2.91 ± 0.045 for the second.

First: NTNNNNTNNNNNPANNT [SWI1]
Second: NTQLHGPSATDPETTAT [RGR1]
The protein stability index of the first is higher: 3.35 ± 0.044 for the first, 3.01 ± 0.094 for the second.

Going from NTSAQHVESDKITAKTQ [IRR1] to NTSVLMKLKLMIVYYKD [YCS4], the protein stability index falls from 2.92 ± 0.05 to 1.56 ± 0.15.

Going from NTVDGDLLKLVHLSNGY [FAS1] to NTYKRLVIGIFKRDLLR [YJL039C/NUP192], the protein stability index falls from 2.86 ± 0.07 to 2.5 ± 0.082.

Going from NVESVGSIPVDQVVVRG [RPB3] to NVFVILMDKCLPKVRIR [DIS3], the protein stability index rises from 2.63 ± 0.057 to 2.96 ± 0.088.

Going from NVGLPILKSLKNRSNRK [YOR098C/NUP1] to NVKNYSTTQEILEFITA [RPC34], the protein stability index falls from 3.07 ± 0.075 to 1.28 ± 0.24.

Going from NVLNRIQELEDQRDELL [ITC1] to NVNKKALGQDTEKMEEQ [MED11], the protein stability index falls from 3.39 ± 0.12 to 2.88 ± 0.059.

NVPGVETANVASLNLLQ [RPL4A] and NVSLIKIEGVATPQEAQ [RPL33B] are within error of each other in protein stability index: 2.71 ± 0.053 for the first, 2.76 ± 0.07 for the second.

First: NVTMIDDLIHFTLKQWN [COR1]
Second: NVVPYHRNTSDYYYEDA [SWI1]
The protein stability index of the first is lower: 2.49 ± 0.14 for the first, 2.85 ± 0.085 for the second.

Compared with NYAMTRNILHNTVPQVT [SRB5], NYHPMNIDETSDEVSRG [SMC4] is higher in protein stability index: 1.7 ± 0.055 for the first, 3.17 ± 0.082 for the second.

Going from NYIENMNEMCKKINAKE [RPN8] to NYKQLTLVGGGAKITPE [RRP43], the protein stability index falls from 2.84 ± 0.045 to 1.86 ± 0.11.

Compared with NYLKYLEYWCNPPYSQC [SOH1], NYLLKRNEDARRNLRYG [RPO31] is higher in protein stability index: 2.14 ± 0.052 for the first, 3.35 ± 0.1 for the second.

Going from NYLRQQCNYSSLVFNRK [PRE5] to NYNRIAKICALLFFNFS [NUT1], the protein stability index falls from 2.71 ± 0.17 to 1.89 ± 0.048.

First: PAELEGLLDLERVIVVT [FAS2]
Second: PALLRPGRLDRKIEFPS [RPT3]
The protein stability index of the first is lower: 2.38 ± 0.1 for the first, 3.2 ± 0.11 for the second.

PAMAMEDLKNFIFQIIE [SRB8] and PASNILRRTTQRVFDET [YDL116W/NUP84] are within error of each other in protein stability index: 2.62 ± 0.065 for the first, 2.66 ± 0.13 for the second.

First: PAWRVWLNFLRGTIPLL [PRP8]
Second: PDFLSKYSAITSSIFQE [NUT1]
The protein stability index of the first is higher: 2.38 ± 0.089 for the first, 1.88 ± 0.041 for the second.

PDLNIDRNNSTNQIFQS [SIN4] and PDTSNEICDLAYQYVRA [SRB2] are within error of each other in protein stability index: 3.1 ± 0.29 for the first, 2.83 ± 0.046 for the second.

Compared with PDYYMIIKYPVAFDNIN [SNF2], PEDLNSLYIYYLIKLLG [SIR2] is lower in protein stability index: 2.78 ± 0.14 for the first, 2.07 ± 0.053 for the second.

First: PEEATTIFSVMVEWLES [PRP8]
Second: PEIDNLDDLVVLKKKNI [RRP6]
The protein stability index of the first is lower: 1.76 ± 0.076 for the first, 2.37 ± 0.067 for the second.

Compared with PEIGNRKINLFYLYMLV [SWI1], PENITKREASRGFFDIL [MCD1] is higher in protein stability index: 1.54 ± 0.1 for the first, 3.1 ± 0.08 for the second.

Going from PEREVLVRELYQWRDLI [RRP6] to PERWLPLRDRSTYRPKK [SRP72], the protein stability index rises from 2.91 ± 0.057 to 3.29 ± 0.2.

First: PEYYSTARVMGGLKNGV [DIS3]
Second: PFQVSSFVKETKLHSGD [SRB8]
The protein stability index of the first is higher: 3.15 ± 0.093 for the first, 2.96 ± 0.088 for the second.

PFSEGVTFSVMPPKKSW [SMC4] and PFTASQSNINTNAPLRT [YIL149C/MLP2] are within error of each other in protein stability index: 2.48 ± 0.091 for the first, 2.37 ± 0.12 for the second.

First: PFVLAENMWPFSYQEVE [CDC53]
Second: PGAKPLQVGDVVSTTAV [FAS1]
The protein stability index of the first is lower: 1.6 ± 0.037 for the first, 2.51 ± 0.075 for the second.

Compared with PGGQAALRALARSGLRI [RPS14A], PGNRNADNVDKILEQFE [FAS2] is lower in protein stability index: 2.15 ± 0.032 for the first, 1.63 ± 0.11 for the second.

PGPYPNEQAARAANQGA [CYT1] and PGSRASSRFIKGGSLYG [RPN2] are within error of each other in protein stability index: 2.35 ± 0.053 for the first, 2.19 ± 0.12 for the second.

First: PHLIIQNHNSKSTDNSA [IRR1]
Second: PHLLKQGLAMVEKYAPD [RRP42]
The protein stability index of the first is higher: 2.71 ± 0.047 for the first, 2.02 ± 0.13 for the second.

Compared with PHTVIRRKTTKQNSSSD [YDL088C/ASM4], PIFNYIFTEKIYKSIFN [YJL039C/NUP192] is lower in protein stability index: 3.14 ± 0.089 for the first, 1.33 ± 0.034 for the second.

First: PIGRHEELLAQYESQAP [SWP82]
Second: PINLENNDGSYGLFLKY [SRB8]
The protein stability index of the first is lower: 2.35 ± 0.057 for the first, 3.07 ± 0.11 for the second.

Compared with PINLPPQIAQLPLATQQ [SNF5], PISISNAPTFNPKYDTS [YAR002W/NUP60] is higher in protein stability index: 2.15 ± 0.071 for the first, 3.03 ± 0.076 for the second.

Compared with PISKHSKQAIYTRATAS [RPS25A], PKDTSAATMTSAPPPAL [RGR1] is higher in protein stability index: 1.86 ± 0.055 for the first, 2.49 ± 0.1 for the second.

Compared with PKELGGLGMISASHILI [PRP8], PKFDVGALMALHGEGSG [RPS1A] is lower in protein stability index: 2.36 ± 0.072 for the first, 2.01 ± 0.17 for the second.

Going from PKGVILYGAPGTGKTLL [RPT2] to PKKEYDDDAVRREVQIQ [NSL1], the protein stability index falls from 3.67 ± 0.27 to 1.4 ± 0.18.

Going from PKKFGGKGARSRFQKSY [RPS16A] to PKLESVKWQYDPNNPVD [SNF12], the protein stability index falls from 3.22 ± 0.12 to 2.38 ± 0.059.

First: PKNLSTPSTSSNGEFIP [CSE2]
Second: PKNVKGEEDADEEETAE [RPN1]
The protein stability index of the first is lower: 2.83 ± 0.049 for the first, 3.21 ± 0.17 for the second.

Compared with PKSASNTSSKRQKKKPT [IRR1], PKVSAGDSGISPEESKA [SIR4] is higher in protein stability index: 2.78 ± 0.069 for the first, 3.44 ± 0.1 for the second.

First: PLELSAPIGKHYVVLDT [DIS3]
Second: PLKRAIWLIKCCYFIEW [SRB8]
The protein stability index of the first is higher: 2.83 ± 0.1 for the first, 2.56 ± 0.1 for the second.

First: PLKTELEANGRSLEKVN [SSN2]
Second: PLLSNYASKINRAEGPE [RGR1]
The protein stability index of the first is higher: 3.19 ± 0.12 for the first, 2.88 ± 0.12 for the second.

Going from PLQGIFHNAVFNSFRRF [QCR8] to PLQSIPEIGNRKINLFY [SWI1], the protein stability index falls from 2.67 ± 0.064 to 1.51 ± 0.07.

First: PLRENTNVLDVKDKEED [YDL116W/NUP84]
Second: PLRMETIPILESDSKAT [DSN1]
The protein stability index of the first is higher: 3.07 ± 0.082 for the first, 2.14 ± 0.062 for the second.

PLSESLRLVDDDENNPS [RRP6] and PLSLTHRDKNKMDMICR [DIS3] are within error of each other in protein stability index: 3.15 ± 0.11 for the first, 3.24 ± 0.13 for the second.

First: PMASSSSFGSESLTFNE [SWI1]
Second: PMETLLSGLSADKPFTR [YML031W/NDC1]
The protein stability index of the first is higher: 3.15 ± 0.043 for the first, 2.91 ± 0.05 for the second.

First: PNFEASFVHGVVGQLFQ [SMC2]
Second: PNFLIMQGKITKVLNMK [SMC2]
The protein stability index of the first is lower: 1.61 ± 0.098 for the first, 2.73 ± 0.1 for the second.

First: PNISHSNIDYQTLLANS [SNF2]
Second: PNLIEKMVAKGLNDLVE [BRR2]
The protein stability index of the first is higher: 3.33 ± 0.17 for the first, 2.51 ± 0.17 for the second.

First: PNNSRDDYKDLTCSLYE [IRR1]
Second: PNPTPSMINSVSPTNVM [PGD1]
The protein stability index of the first is higher: 3.11 ± 0.069 for the first, 2.21 ± 0.032 for the second.

PNSNVELAGGNASLTIE [SMC1] and PNVSDKYYLEESNVNDS [NUT1] are within error of each other in protein stability index: 2.91 ± 0.091 for the first, 3.2 ± 0.26 for the second.

Compared with PPLTYKNDTKILVLALE [PRP8], PPPPGFEEDSDLALPPP [PRP8] is higher in protein stability index: 2.58 ± 0.057 for the first, 3.22 ± 0.078 for the second.

Going from PPPPQQSQPIANQSATS [SNF5] to PQNTTATTGGLFGSKPQ [YGR119C/NUP57], the protein stability index rises from 2.96 ± 0.057 to 3.33 ± 0.1.

Compared with PQQAQQQPNPLHGLTPT [GAL11], PQQSGKKLLINKDASLA [DPB4] is lower in protein stability index: 3 ± 0.068 for the first, 2.2 ± 0.062 for the second.

First: PRKLVLSSGENRYAFSQ [SMC4]
Second: PRMYHIGLRQFQQIQYE [POP1]
The protein stability index of the first is lower: 1.39 ± 0.08 for the first, 2.06 ± 0.098 for the second.
